± gives the standard deviation of the averaged measurements.
Tested on: ATP
Experiment: switch fluorescence ratio, 500 uM ATP over buffer (Cy3 cluster intensity, sum of 5 cycles each) (fold (ratio)); higher = stronger signal-on switching upon ATP binding; sequences stand for … in TCGTCGGCAGCGTCAGATGTGTATAAGAGACAGTTTTTTTTTTTTTTTTTTTTTTTTT…TC
Conditions: aptamer strand: ATP DNA aptamer (quencher-CACCTGGGGGAGTATTGCGGAGGAAGG + anchor), 100 nM annealed; ATP concentration: 500 uM
In short: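 Per cluster, summed Cy3 intensity from the target cycles was divided by that from the buffer cycles to give the fluorescence ratio, then averaged per switch-domain sequence. Clusters outside 100-1000 RFU were excluded. The Cy3-labelled switching-strand clusters, on a modified Illumina MiSeq flow-cell, were annealed to 100 nM quencher-labelled ATP aptamer and imaged in selection buffer, then after 15 min with 500 uM ATP at 22 °C, for five cycles with NaOH stripping and re-annealing between them.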
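Further: ATP exposure 15 min at 22 °C before imaging.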

| Sequence | switch fluorescence ratio |
| --- | --- |
| AGGAATAAGC | 1.01 ± 0.012 |
| CAGGAGAGGG | 1.02 ± 0.029 |
| GCTTAGGGTG | 1.01 ± 0.015 |
| CCTAATTTGG | 0.974 ± 0.031 |
| ATCTGGTGCA | 1.055 ± 0.0059 |
| GGGACCGTGC | 1.07 ± 0.096 |
| TGTAACTCAT | 1 ± 0.011 |
| TTTACTTTCC | 1.56 ± 0.16 |
| GGATTACCCT | 1.04 ± 0.015 |
| GATAATGCGG | 1.01 ± 0.025 |
| GCGCTAGATG | 1.008 ± 0.0093 |
| AGGGTACCTG | 1.01 ± 0.015 |
| TTTGACTGGT | 0.984 ± 0.027 |
| GCCATTGTGG | 0.99 ± 0.019 |
| GGTTCAAAAC | 0.997 ± 0.059 |
| ATTGCGAGGC | 1.04 ± 0.029 |
| TTCAGATACC | 1.04 ± 0.017 |
| TGGTGGCACG | 0.965 ± 0.011 |
| CGGGGGTAGA | 0.966 ± 0.042 |
| GTGGGTATTT | 0.977 ± 0.023 |
| GTTAAAGGGG | 0.983 ± 0.02 |
| ATTATTAGGA | 1.04 ± 0.088 |
| ACCCATGCGA | 1.13 ± 0.036 |
| GAGGCTTGGG | 0.99 ± 0.011 |
| CGCTGGACGG | 1.023 ± 0.0098 |
| TTCCGTTGGG | 1.028 ± 0.0032 |

| Sequence | switch fluorescence ratio |
| --- | --- |
| CCTTTAGATT | 1.01 ± 0.013 |
| TAGGGTTGGA | 1 ± 0.018 |
| AATGTAGGGA | 1.06 ± 0.051 |
| AACTTTTAAT | 1.019 ± 0.0032 |
| TCTAAGGGGA | 1.06 ± 0.11 |
| TTCGTAGTTT | 0.964 ± 0.023 |
| AATTGTAGGT | 0.9731 ± 0.0046 |
| GGGTGTACAA | 0.98 ± 0.019 |
| AGGCCTCGGG | 1.022 ± 0.0054 |
| GATGTCGTGG | 1.015 ± 0.0089 |
| GTTCGGGGGG | 1 ± 0.032 |
| ACATTAACTA | 1.09 ± 0.019 |
| ACGGAGACCG | 1.01 ± 0.038 |
| AAAGGTTATC | 1.018 ± 0.0098 |
| TTTGTTGCTC | 1 ± 0.03 |
| GTGGGTTGTG | 0.978 ± 0.04 |
| GATGGACTAA | 1.02 ± 0.018 |
| GCAGGCCTGA | 1.01 ± 0.029 |
| ACTATGAGCC | 1.01 ± 0.021 |
| ACCCCATGCG | 1.22 ± 0.037 |
| TATCGGTGTT | 0.991 ± 0.027 |
| ACATTCCTGT | 1.05 ± 0.046 |
| TTTACATTTT | 0.998 ± 0.044 |
| CGGGTGGGTG | 1.01 ± 0.013 |
| CGTACGTTCT | 1.026 ± 0.0096 |
| TAGATGTTTT | 0.986 ± 0.035 |

| Sequence | switch fluorescence ratio |
| --- | --- |
| CGGAAATAT | 1.023 ± 0.0046 |
| GGGTTTTTTT | 0.998 ± 0.044 |
| GCTAAACGTG | 0.959 ± 0.014 |
| GAGTTGTGTA | 0.985 ± 0.035 |
| GCTCCCTGAG | 1.056 ± 0.0076 |
| GAGCAACCTT | 1.45 ± 0.014 |
| GGCGAGGGGC | 1.01 ± 0.036 |
| GTTTTTAGGT | 0.98 ± 0.021 |
| TCCGGGGTTG | 0.988 ± 0.046 |
| GGGCATGTCT | 1.03 ± 0.042 |
| TACTCTTTGT | 1.015 ± 0.002 |
| CCAGGCTTAA | 1.06 ± 0.036 |
| AAATATTGTG | 0.982 ± 0.023 |
| ACAGTGTGTT | 0.979 ± 0.018 |
| ATAACAAATT | 1.03 ± 0.031 |
| TTGGTTTGGG | 0.98 ± 0.022 |
| GACAGTCGGG | 1.01 ± 0.024 |
| GAGGGAAACT | 1.05 ± 0.11 |
| TATAGTATGT | 1.01 ± 0.015 |
| ATAGCGGGGG | 0.998 ± 0.031 |
| ATCGAGTAAG | 1.02 ± 0.029 |
| GTTTTTTAGC | 0.991 ± 0.069 |
| TTGTGAGGGC | 1.02 ± 0.041 |
| ACCCCGGTAA | 1.87 ± 1.2 |
| ATTAGTGATC | 1.003 ± 0.0011 |
| GTGTTGGGGT | 0.986 ± 0.02 |

| Sequence | switch fluorescence ratio |
| --- | --- |
| TTTGAGAGTA | 0.96 ± 0.028 |
| ACTTGTTTCG | 0.961 ± 0.037 |
| TAGGAGTTGC | 0.971 ± 0.052 |
| GCGAATTAGG | 0.9719 ± 0.0032 |
| TTGCATTAAG | 0.9963 ± 0.0082 |
| TTGAAAAAAC | 1.04 ± 0.074 |
| TTATTGTGCT | 0.983 ± 0.031 |
| TTTTGGCGAA | 0.989 ± 0.015 |
| CAGAGTCTGG | 1.04 ± 0.024 |
| GTAAGTTGGT | 1 ± 0.021 |
| GCTAGCGTTC | 1 ± 0.013 |
| AAAGAAAAAA | 1.012 ± 0.0025 |
| GTTTTTACGA | 1.03 ± 0.027 |
| CGTTCATATG | 0.963 ± 0.023 |
| CAATAAATAT | 0.97 ± 0.032 |
| GAGAGTTTAA | 1.013 ± 0.0051 |
| GGGTTCAGTG | 0.982 ± 0.026 |
| TAGCTCTAGT | 1.016 ± 0.0044 |
| GCGGCTGGGA | 1.047 ± 0.0092 |
| AGATCTATTG | 1.03 ± 0.033 |
| GAGTGGGGTA | 1 ± 0.011 |
| ATGTTAATCT | 1.02 ± 0.035 |
| ACCTGGGCGC | 1.2 ± 0.12 |
| GGTTGTAGGC | 1.02 ± 0.017 |
| TGAGTGTGGG | 0.99 ± 0.03 |
| GGGTGACGAG | 1 ± 0.038 |

| Sequence | switch fluorescence ratio |
| --- | --- |
| TTGGAATGGG | 1 ± 0.026 |
| AGCGAGCGAA | 1.01 ± 0.014 |
| CATTGTCTTC | 1.05 ± 0.055 |
| ATGCTTAGTC | 0.964 ± 0.018 |
| GGCCGGGTTA | 1.01 ± 0.042 |
| ATATTCCGTT | 0.968 ± 0.018 |
| TGCAGGGTTT | 0.9906 ± 0.0082 |
| AGTGGAGGT | 0.97 ± 0.041 |
| TTATAGGGAC | 1 ± 0.015 |
| TTTCAGTGGT | 0.986 ± 0.024 |
| AAAGGAAGGG | 0.989 ± 0.033 |
| CGGTTTGGTG | 1.01 ± 0.029 |
| ATGCTTGCTG | 0.9819 ± 0.0052 |
| GAAAGGGGTT | 1.02 ± 0.035 |
| GGGATCGTTT | 0.982 ± 0.046 |
| TGGTCCAGG | 1.15 ± 0.14 |
| ATGTTTATGG | 0.987 ± 0.012 |
| TATTGCTTT | 0.977 ± 0.012 |
| TTCAGGTGGT | 1.06 ± 0.13 |
| CCAGCTGGAG | 0.997 ± 0.025 |
| TGGCCATCCT | 1.62 ± 0.82 |
| GATGGTGTAA | 0.967 ± 0.028 |
| CTTGATGCGA | 1.032 ± 0.0045 |
| GGGGCGGATG | 0.968 ± 0.013 |
| CGGTCTCATC | 1.02 ± 0.014 |
| ATGAATGGAG | 1.01 ± 0.026 |

| Sequence | switch fluorescence ratio |
| --- | --- |
| CGGGGGAGTG | 0.975 ± 0.025 |
| AGCCCGGAAA | 1.023 ± 0.0038 |
| CAGCGGGGGC | 1.01 ± 0.016 |
| ACGGCTGTTA | 1.012 ± 0.0046 |
| GTAATACGTG | 1.14 ± 0.041 |
| TAAAGGTACA | 1.03 ± 0.018 |
| GCTATCTTAT | 0.9798 ± 0.008 |
| GCAATATGTA | 1.62 ± 0.11 |
| GCGGTTTGAC | 1.03 ± 0.018 |
| TGGTTGATAG | 0.9916 ± 0.0065 |
| TGACGAAACT | 1.35 ± 0.33 |
| GTGTTTTTGT | 0.9723 ± 0.0083 |
| CCGTGGGATG | 0.986 ± 0.031 |
| CCAGTTGATG | 0.991 ± 0.057 |
| AGGGAGTCTT | 0.971 ± 0.052 |
| GGGGAATCGT | 0.948 ± 0.027 |
| TTACATGCTA | 1 ± 0.032 |
| AATATTTGAG | 0.998 ± 0.02 |
| AAGGTAAGGT | 1 ± 0.023 |
| GGTTTAGCTC | 0.999 ± 0.038 |
| TTCTCCGGGT | 1.24 ± 0.32 |
| TGGTGTTTT | 0.998 ± 0.024 |
| TTTCTGTTTG | 1.01 ± 0.05 |
